One assay addresses T1, hPR (Homo sapiens, UniProt P06401).
T1 construct: expressed in transfected cells; host or cells: HeLa
T1 sequence (P06401 1-933): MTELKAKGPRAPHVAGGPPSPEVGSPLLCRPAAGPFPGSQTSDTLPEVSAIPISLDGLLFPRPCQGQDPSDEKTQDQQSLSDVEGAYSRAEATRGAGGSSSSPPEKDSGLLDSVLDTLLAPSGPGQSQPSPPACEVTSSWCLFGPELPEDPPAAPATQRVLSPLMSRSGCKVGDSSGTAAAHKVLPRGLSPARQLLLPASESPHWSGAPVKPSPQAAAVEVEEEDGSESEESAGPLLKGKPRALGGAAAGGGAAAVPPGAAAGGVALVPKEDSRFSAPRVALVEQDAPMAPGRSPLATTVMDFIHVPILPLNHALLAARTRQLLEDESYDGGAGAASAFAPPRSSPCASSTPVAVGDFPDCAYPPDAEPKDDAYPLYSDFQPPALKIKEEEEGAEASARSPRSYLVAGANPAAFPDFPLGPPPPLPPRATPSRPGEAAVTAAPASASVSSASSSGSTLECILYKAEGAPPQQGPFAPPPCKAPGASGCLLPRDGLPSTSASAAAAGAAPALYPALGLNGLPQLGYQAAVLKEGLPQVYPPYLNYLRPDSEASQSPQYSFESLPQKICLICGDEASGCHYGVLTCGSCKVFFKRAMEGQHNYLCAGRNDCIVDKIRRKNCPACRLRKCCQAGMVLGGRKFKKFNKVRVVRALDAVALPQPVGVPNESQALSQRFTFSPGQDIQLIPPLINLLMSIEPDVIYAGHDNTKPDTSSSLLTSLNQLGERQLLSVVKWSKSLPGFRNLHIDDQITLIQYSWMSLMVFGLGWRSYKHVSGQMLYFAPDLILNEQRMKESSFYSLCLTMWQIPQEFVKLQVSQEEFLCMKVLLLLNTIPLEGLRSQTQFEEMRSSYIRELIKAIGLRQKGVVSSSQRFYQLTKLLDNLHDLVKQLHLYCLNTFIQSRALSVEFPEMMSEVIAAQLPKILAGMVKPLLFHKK
The assay is described as follows: Transient transfection CAT reporter assay, hPRB with PRE2-TATA-CAT in HeLa cells. It counts as cell-based. The method, then:
(§1) Lipofectin (GibcoBRL) was selected for transfection of Hela cells.
To further investigate the role of SRC-1 in receptor transactivation of target gene expression, transient transfection assays were carried out in mammalian cell lines. HeLa cells were cotransfected with mammalian expression vectors for full-length SRC-1 and hPRB together with a plasmid containing two copies of the progesterone-responsive DNA element (PRE) inserted in front of the TATA box of the E1b adenovirus, linked to the chloramphenicol acetyl transferase (CAT) reporter gene, PRE2-TATA-CAT.
Cells were harvested 42 h after transfection and the chloramphenicol acetyl transferase (CAT) activity determined using 8 μg of protein extract.
On the technique in general: In a reporter assay the amount or activity of a reporter protein is the signal.

The target in a further assay is T2, TR (Homo sapiens, UniProt P10828).
T2 sequence (P10828 1-461): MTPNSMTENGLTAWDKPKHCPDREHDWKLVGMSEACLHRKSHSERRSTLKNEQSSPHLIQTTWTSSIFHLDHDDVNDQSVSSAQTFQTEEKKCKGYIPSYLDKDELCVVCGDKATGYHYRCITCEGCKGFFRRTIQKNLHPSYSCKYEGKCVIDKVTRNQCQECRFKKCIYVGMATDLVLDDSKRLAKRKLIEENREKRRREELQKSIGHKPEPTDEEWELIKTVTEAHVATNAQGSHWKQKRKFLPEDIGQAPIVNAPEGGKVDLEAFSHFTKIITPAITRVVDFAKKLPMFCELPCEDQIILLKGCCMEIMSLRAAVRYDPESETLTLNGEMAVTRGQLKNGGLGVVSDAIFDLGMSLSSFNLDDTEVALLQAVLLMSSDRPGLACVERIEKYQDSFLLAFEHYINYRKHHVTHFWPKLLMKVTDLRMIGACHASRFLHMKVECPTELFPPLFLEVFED
Put plainly: CAT reporter assay TR/DR4-tk-CAT in HeLa cells. The class given is cell-based. More on the design: expressed in transfected cells. Particulars: 3 μg SRC-1, Triac 2×10^−8 M. As to the method:
Biol. 13, 6501-6508), Sp1 and Sp1-tk-CAT (Courey, A. J. and Tjian, R. (1988), Cell 55, 887-898), CREB and CRE-tk-CAT (Chrivia, J. C. et al., (1993), Nature 365, 855) and GAL4VP16 and 17mer-tk-CAT (Baniahmad, A. et al., (1992), EMBO J. 11, 1015-1023) have been previously described and the above references are incorporated herein by reference in their entirety, including any drawings.
as §1
HeLa cells were cotransfected with 0.5 μg of cDNAs encoding various steroid receptors indicated and 5 μg of their cognates HREs containing reporters, including PR/PRE2-TATA-CAT, ER/ERE2-TATA-CAT, GR/PRE2-TATA-CAT, TR-/DR4-tk-CAT and RXR/DR1-tk-CAT, along with 3 μg of SRC-1 or empty expression vector. Cells were then treated with their corresponding ligands (PR:R5020, ER:estradiol, GR:dexamethasone, TR:Triac, RXR:9-cis retinoic acid) at a concentration of 2×10^−8M. The CAT activity of the reporter was determined using 14 μg of protein extract.

B1: steroid receptor coactivator-one (SRC-1), full-length (protein)
chain: MSIPRVNPSVNPSISPAHGVARSSTLPPSNSNMVSTRINRQQSSDLHSSSHSNSSNSQGSFGCSPGSQIVANVALNKGQASSQSSKPSLNLNNPPMEGTGISLAQFMSPRRQVTSGLATRPRMPNNSFPPNISTLSSPVGMTSSACNNNNRSYSNIPVTSLQGMNEGPNNSVGFSASSPVLRQMSSQNSPSRLNIQPAKAESKDNKEIASTLNEMIQSDNSSSDGKPLDSGLLHNNDRLSDGDSKYSQTSHKLVQLLTTTAEQQLRHADIDTSCKDVLSCTGTSNSASANSSGGSCPSSHSSLTARHKILHRLLQEGSPSDITTLSVEPDKKDSASTSVSVTGQVQGNSSIKLELDASKKKESKDHQLLRYLLDKDEKDLRSTPNLSLDDVKVKVEKKEQMDPCNTNPTPMTKATPEEIKLEAQSQFTADLDQFDQLLPTLEKAAQLPGLCETDRMDGAVTSVTIKSEILPASLQSATARPTSRLNRLPELELEAIDNQFGQPGTGDQIPWTNNTVTAINQSKSEDQCISSQLDELLCPPTTVEGRNDEKALLEQLVSFLSGKDETELAELDRALGIDKLVQGGGLDVLSERFPPQQATPPLIMEERPNLYSQPYSSPFPTANLPSPFQGMVRQKPSLGTMPVQVTPPRGAFSPGMGMQPRQTLNRPPAAPNQLRLQLQQRLQGQQQLIHQNRQAILNQFAATAPVGINMRSGMQQQITPQPPLNAQMLAQRQRELYSQQHRQRQLIQQQRAMLMRQQSFGNNLPPSSGLPVQTGNPRLPQGAPQQFPYPPNYGTNPGTPPASTSPFSQLAANPEASLANRNSMVSRGMTGNIGGQFGTGINPQMQQNVFQYPGAGMVPQGEANFAPSLSPGSSMVPMPIPPPQSSLLQQTPPASGYQSPDMKAWQQGAIGNNNVFSQAVQNQPTPAQPGVYNNMSITVSMAGGNTNVQNMNPMMAQMQMSSLQMPGMNTVCPEQINDPALRHTGLYCNQLSSTDLLKTEADGTQQVQQVQVFADVQCTVNLVGGDPYLNQPGPLGTQKPTSGPQTPQAQQKSLLQQLLTE
Consider B1, for which, in the assay with hPR (ERE2-TATA-CAT reporter with hPRB, with or without ligand), the “effect on reporter construct activity in the absence of PR binding site” value is “no effect”. Besides, in the assay with hPR (HeLa cells, 3 μg SRC-1, R5020 2×10^−8 M, PRE2-TATA-CAT), the “effect on PR transcriptional activity” value is “enhance”. The “effect on RU486-antagonized receptor transcriptional activity” value in the assay with hPR (HeLa cells, SRC-1 coexpressed, R5020 plus RU486) was “unable to augment and/or recover to any extent”. The “induction over the hormone-induced receptor activity” value with hPR (HeLa cells, full-length SRC-1 cDNA (3 μg) coexpressed with hPR, 2×10^−8 M R5020, mean of seven experiments ± SEM) was 14.0±3.3 fold. The “activity of ligand-free hPR on the reporter” value with hPR (HeLa cells, no hormone, in the absence or presence of SRC-1) is “minimal activity”. In the assay with hPR (coexpression of SRC-1 with receptor in mammalian cells, summary statements), the “enhancement of hormone-induced transcriptional activity” value is over 10 fold. In addition, the “effect on TR transcriptional activity” value in the assay with TR is listed as “enhance”.

The record behind these values is patent US6380373B1, “Steroid receptor coactivator compositions and methods of use” (Baylor College of Medicine, priority 1995, dated 2002).
